Here are results for 1 molecule from US20160289336A1 (F STAR BIOTECHNOLOGY, published 2016).

Test [1] concerns the target T1, monomeric HER2 (extracellular domain of HER2 without tag) (human, UniProt P04626 23-652).
T1 construct: also called HER2 ECD untagged; untagged HER2 ECD, in house
In words: ELISA, monomeric HER2 (ECD untagged) coated at 2 µg/ml, biotinylated H561-4, Strep-HRP; monomeric HER2, not dimeric HER2. Here is the method: (§1) Monomeric HER2 (HER2 ECD untagged) and dimeric HER2 (HER2 ECD Fc-tag) were immobilised at 2 μg/ml on a 96-well maxisorp plate (Nunc) in PBS overnight at 4° C. The plates were blocked for 1 hour with 200 μl of 5% BSA in PBS. […] The dilution series was removed and the plate was washed 3× with phosphate buffered saline with Tween 20 (PBST).
(§2) A 1:5000 dilution of Strep-HRP (Abcam ab) was prepared in 5% BSA and 100 μl was added to the plate and incubated for 1 hour at RT. The plate was then washed 3× with PBST before 100 μl of TMB (Roche) were added, and the plate incubated at RT for 2 mins. The reaction was stopped using 100 μl of 2 M H₂SO₄ and the plate was read at 450 nm.
In general terms: In an ELISA, binding on a coated surface is turned into a signal by an enzyme label.

The target in test [2] is T2, dimeric HER2 (extracellular domain of HER2 with Fc tag, R&D) (human, UniProt P04626 23-652).
T2 construct: Bought protein; also called HER2 ECD Fc-tag; Fc-tagged HER2 ECD; not shown: Fc tag of the bought R&D protein
In words: ELISA, dimeric HER2 (ECD Fc-tag) coated at 2 µg/ml, biotinylated H561-4, Strep-HRP. Here is the method:
as §1, §2

B1: antigen-binding Fc fragment H561-4 (designed binder)
chain: TCPPCPAPELLGGPSVFLFPPKPKDTLMISRTPEVTCVVVDVSHEDPEVKFNWYVDGVEVHNAKTKPREEQYNSTYRVVSVLTVLHQDWLNGKEYKCKVSNKALPAPIEKTISKAKGQPREPQVYTLPPSRDEFFTYWVSLTCLVKGFYPSDIAVEWESNGQPENNYKTTPPVLDSDGSFFLYSKLTVDRRRWTAGNVFSCSVMHEALHNHYTQKSLSLSPGK
notes: C-terminal K or GK may be clipped in manufacture; also called FS102; Fcab
For orientation: EC50 means the midpoint of the concentration-response curve. A higher EC50 goes with a need for much substance. B1: the EC50 in test [1] stood at 20.6 nM; in test [2], 1.7 nM.
